From publication PMC6104826

Target: HA-tagged cMyBP-C construct C6–C8 (human)
Experiment: co-IP; HEK293 cells co-expressing cMyc-tagged BT (RyR) constructs with HA-tagged cMyBP-C constructs; HA–cMyBP-C immunoprecipitated with Ab^HA from solubilised cell lysates, co-precipitated BT detected by western blotting with Ab^cMyc; non-immune rabbit IgG as negative control; densitometry

Chain of HA-tagged cMyBP-C construct C6–C8 (human) (Q14896 whole entry): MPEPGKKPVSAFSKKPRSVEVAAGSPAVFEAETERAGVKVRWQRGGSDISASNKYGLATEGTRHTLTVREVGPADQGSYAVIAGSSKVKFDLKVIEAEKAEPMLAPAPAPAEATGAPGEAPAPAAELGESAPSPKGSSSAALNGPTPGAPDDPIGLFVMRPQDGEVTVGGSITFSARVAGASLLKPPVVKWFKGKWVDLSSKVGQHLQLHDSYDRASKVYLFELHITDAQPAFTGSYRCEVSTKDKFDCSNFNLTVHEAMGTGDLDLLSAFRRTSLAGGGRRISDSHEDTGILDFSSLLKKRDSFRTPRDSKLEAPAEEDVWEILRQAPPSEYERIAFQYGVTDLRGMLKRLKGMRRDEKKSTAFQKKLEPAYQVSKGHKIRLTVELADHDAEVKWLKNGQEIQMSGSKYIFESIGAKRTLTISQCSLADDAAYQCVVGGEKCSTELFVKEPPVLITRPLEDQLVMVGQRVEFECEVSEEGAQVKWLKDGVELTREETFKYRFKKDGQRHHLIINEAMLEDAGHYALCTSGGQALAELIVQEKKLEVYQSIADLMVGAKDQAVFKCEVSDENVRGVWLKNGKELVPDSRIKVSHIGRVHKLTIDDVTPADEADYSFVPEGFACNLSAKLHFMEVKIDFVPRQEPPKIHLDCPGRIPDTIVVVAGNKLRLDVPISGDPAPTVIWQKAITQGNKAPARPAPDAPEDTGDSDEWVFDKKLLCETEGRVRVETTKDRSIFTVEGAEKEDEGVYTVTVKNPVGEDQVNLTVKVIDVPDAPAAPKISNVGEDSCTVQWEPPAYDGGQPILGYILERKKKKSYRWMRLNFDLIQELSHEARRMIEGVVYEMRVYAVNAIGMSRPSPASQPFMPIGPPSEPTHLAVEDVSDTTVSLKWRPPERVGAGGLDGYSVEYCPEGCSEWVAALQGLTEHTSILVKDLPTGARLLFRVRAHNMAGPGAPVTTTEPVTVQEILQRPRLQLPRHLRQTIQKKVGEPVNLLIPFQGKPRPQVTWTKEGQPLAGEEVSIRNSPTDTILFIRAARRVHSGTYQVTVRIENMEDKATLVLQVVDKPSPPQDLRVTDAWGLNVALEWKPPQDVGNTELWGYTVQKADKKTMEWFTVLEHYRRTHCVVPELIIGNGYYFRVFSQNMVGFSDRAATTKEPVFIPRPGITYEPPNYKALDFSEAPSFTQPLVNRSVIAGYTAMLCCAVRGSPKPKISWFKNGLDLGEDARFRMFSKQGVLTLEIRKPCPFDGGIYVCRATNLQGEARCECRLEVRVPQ

BT4L (cMyc-tagged RyR2 residues 1–906) (from UniProt Q92736 1-906) (domain or fragment)
fold signal against C8–C10: 3 fold
